Where a chain is given by its changes, count along the chain named.
B1: HDAC4^N-WT (N-terminal fragment of Drosophila HDAC4, Pro37 to Gln143) (domain or fragment, UniProt Q9VYF3 37-143, looked up)
chain: PHPAVDIDQQIMELKKSQELQKQRLINSFQEQSKQMELEHKLQLEHKYQFAVNSHGAFQELRNESMVTAAAAAVAQEQHRQQLHQQQQQHQQQQQQQQHQQQQQQQQ
notes: Drosophila HDAC4 (DmHDAC4), translation of nucleotides 461-4216 of NCBI NM_132640; residues Pro37-Gln143, the region that corresponds to Ala62-Gln153 of human HDAC4; codon optimised for E. coli; Cloned in pET-15B in frame with the N-terminal 6x His tag; Which UniProt isoform equals the translation of NM_132640 is not known to me; also called wild-type N-terminal HDAC4
B2: HDAC4^N-F65A (domain or fragment, Drosophila, UniProt Q9VYF3 37-143, looked up)
chain: B1 chain with F29A
notes: Drosophila HDAC4 (DmHDAC4), translation of nucleotides 461-4216 of NCBI NM_132640; residues Pro37-Gln143 with Phe65Ala; Made by mutagenesis of HDAC4^N-WT in pET-15B
B3: HDAC4^N-S69F (domain or fragment, Drosophila, UniProt Q9VYF3 37-143, looked up)
chain: B1 chain with S33F
notes: Drosophila HDAC4 (DmHDAC4), translation of nucleotides 461-4216 of NCBI NM_132640; residues Pro37-Gln143 with Ser69Phe; Made by mutagenesis of HDAC4^N-WT in pET-15B

Target: the molecule itself
Test: cross-linking; 0.5 mg/ml HDAC4^N in SEC buffer (30 mM HEPES pH 7.6, 150 mM NaCl) with 0.2 mM or 2.0 mM disuccinimidyl suberate (DSS), 30 min at room temperature, quenched with Tris; SDS-PAGE and colloidal Coomassie

Row | Protein | binding result
1 | B1 | binds
2 | B2 | binds
3 | B3 | binds

Reference: publication PMC12567083, “N-terminal oligomerization drives HDAC4 nuclear condensation and neurodevelopmental dysfunction in Drosophila” (Open Biology, 2025)
